Experiments:
[1] = molecular target: T1, MBP-ORRM1 (Arabidopsis, UniProt Q8L440 55-374); test: EMSA; MBP-ORRM1; no shift after many purification attempts; REMSA following Royan et al. (2021), binding buffer, pH and temperature not given in the material; proteins stored in 25 mM Tris-HCl pH 7.2, 250 mM NaCl, 20% glycerol, 0.5 mM EDTA, 1 mM DTT; conditions: protein: recombinant; tags: N-terminal MBP; label: 5'-Cy5; single strand
T1 sequence: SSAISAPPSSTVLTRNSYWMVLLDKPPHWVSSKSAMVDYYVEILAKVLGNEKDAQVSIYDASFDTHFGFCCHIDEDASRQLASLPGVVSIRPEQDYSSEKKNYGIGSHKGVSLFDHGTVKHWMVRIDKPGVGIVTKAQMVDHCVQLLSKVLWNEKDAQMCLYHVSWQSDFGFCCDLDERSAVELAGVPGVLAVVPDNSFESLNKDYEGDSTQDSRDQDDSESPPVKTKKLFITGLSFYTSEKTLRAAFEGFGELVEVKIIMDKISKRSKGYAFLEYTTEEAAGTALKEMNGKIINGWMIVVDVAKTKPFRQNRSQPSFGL

[2] = molecular target: T2, dsn3PLS-DYW (synthetic construct (design of Royan et …, UniProt UPI0040747504 1-612)); test: EMSA; dsn3PLS-DYW alone; Kd estimated, value only in figure; REMSA following Royan et al. (2021), binding buffer, pH and temperature not given in the material; proteins stored in 25 mM Tris-HCl pH 7.2, 250 mM NaCl, 20% glycerol, 0.5 mM EDTA, 1 mM DTT; conditions: protein: recombinant; tags: N-terminal thioredoxin (109 aa)-6xHis, 133 aa tag in total (pETM20); label: 5'-Cy5; single strand
T2 chain: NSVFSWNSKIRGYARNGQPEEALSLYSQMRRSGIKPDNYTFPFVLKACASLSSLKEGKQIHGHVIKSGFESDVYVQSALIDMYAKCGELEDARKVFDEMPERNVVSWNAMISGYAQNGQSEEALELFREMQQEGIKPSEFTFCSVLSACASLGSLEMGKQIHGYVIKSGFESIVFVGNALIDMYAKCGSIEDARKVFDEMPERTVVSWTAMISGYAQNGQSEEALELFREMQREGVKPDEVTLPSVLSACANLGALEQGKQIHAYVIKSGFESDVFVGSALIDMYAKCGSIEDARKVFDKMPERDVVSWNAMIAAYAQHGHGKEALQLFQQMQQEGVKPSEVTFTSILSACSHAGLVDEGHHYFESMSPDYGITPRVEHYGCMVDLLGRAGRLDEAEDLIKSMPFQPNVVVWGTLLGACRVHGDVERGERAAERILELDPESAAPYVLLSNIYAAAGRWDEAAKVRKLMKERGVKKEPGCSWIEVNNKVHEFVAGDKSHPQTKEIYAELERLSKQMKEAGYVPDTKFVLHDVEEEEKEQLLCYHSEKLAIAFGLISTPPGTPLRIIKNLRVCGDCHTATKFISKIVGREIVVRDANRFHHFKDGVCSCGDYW

B1: rpoA_REMSA (ssRNA)
RNA: AUGUAUUACACGUGCAAAAUCUGAGA
B1: no binding [1]; binds [2].
